Reference: paper PMC10727010 (Structure (London, England : 1993), 2023)

Key:
[1] = tested on: PCNA; details: PIP or APIM mutated; local ultraviolet irradiation; ref [5]; cited from earlier work
[2] = biological target: uniformly 2H,13C,15N-labelled proliferating cell nuclear antigen (PCNA), used in NMR (human, UniProt P12004 1-259, uniformly 2H,13C,15N enriched); test: NMR titration
Chain of uniformly 2H,13C,15N-labelled proliferating cell nuclear antigen (PCNA), used in NMR (P12004 1-259): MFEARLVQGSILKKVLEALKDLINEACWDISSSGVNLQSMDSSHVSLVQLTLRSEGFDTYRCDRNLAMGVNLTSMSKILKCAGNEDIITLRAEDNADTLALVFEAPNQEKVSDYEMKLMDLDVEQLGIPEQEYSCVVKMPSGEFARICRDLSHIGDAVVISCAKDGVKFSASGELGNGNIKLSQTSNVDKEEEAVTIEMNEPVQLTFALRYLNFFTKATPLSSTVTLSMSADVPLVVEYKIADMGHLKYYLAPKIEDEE

Row | Kd [2] [µM] | Molecule | co-localization of PCNA and FBH1 on motif mutation [1]
1 | – | F-box DNA helicase 1 (protein, UniProt Q8NFZ0 1-1043, looked up) F-box DNA helicase 1: MRRFKRKHLTAIDCQHLARSHLAVTQPFGQRWTNRDPNHGLYPKPRTKRGSRGQGSQRCIPEFFLAGKQPCTNDMAKSNSVGQDSCQDSEGDMIFPAESSCALPQEGSAGPGSPGSAPPSRKRSWSSEEESNQATGTSRWDGVSKKAPRHHLSVPCTRPREARQEAEDSTSRLSAESGETDQDAGDVGPDPIPDSYYGLLGTLPCQEALSHICSLPSEVLRHVFAFLPVEDLYWNLSLVCHLWREIISDPLFIPWKKLYHRYLMNEEQAVSKVDGILSNCGIEKESDLCVLNLIRYTATTKCSPSVDPERVLWSLRDHPLLPEAEACVRQHLPDLYAAAGGVNIWALVAAVVLLSSSVNDIQRLLFCLRRPSSTVTMPDVTETLYCIAVLLYAMREKGINISNRIHYNIFYCLYLQENSCTQATKVKEEPSVWPGKKTIQLTHEQQLILNHKMEPLQVVKIMAFAGTGKTSTLVKYAEKWSQSRFLYVTFNKSIAKQAERVFPSNVICKTFHSMAYGHIGRKYQSKKKLNLFKLTPFMVNSVLAEGKGGFIRAKLVCKTLENFFASADEELTIDHVPIWCKNSQGQRVMVEQSEKLNGVLEASRLWDNMRKLGECTEEAHQMTHDGYLKLWQLSKPSLASFDAIFVDEAQDCTPAIMNIVLSQPCGKIFVGDPHQQIYTFRGAVNALFTVPHTHVFYLTQSFRFGVEIAYVGATILDVCKRVRKKTLVGGNHQSGIRGDAKGQVALLSRTNANVFDEAVRVTEGEFPSRIHLIGGIKSFGLDRIIDIWILLQPEEERRKQNLVIKDKFIRRWVHKEGFSGFKRYVTAAEDKELEAKIAVVEKYNIRIPELVQRIEKCHIEDLDFAEYILGTVHKAKGLEFDTVHVLDDFVKVPCARHNLPQLPHFRVESFSEDEWNLLYVAVTRAKKRLIMTKSLENILTLAGEYFLQAELTSNVLKTGVVRCCVGQCNNAIPVDTVLTMKKLPITYSNRKENKGGYLCHSCAEQRIGPLAFLTASPEQVRAMERTVENIVLPRHEALLFLVF | reduced co-localization of PCNA and FBH1 when either PIP or APIM is mutated
2 | 7.8 | GSQRCIPEFFLAGK [FBH1PIP peptide (residues 55-68 of F-box DNA helicase 1)] | –
3 | 276 | KDKFIRRWVHK [FBH1APIM peptide (residues 805-815 of F-box DNA helicase 1)] | –
